This assay addresses Avr2 elicitor molecule of Cladosporium fulvum (Cladosporium fulvum).

B1: Cf-2.1 protein (polypeptide encoded by the tomato Cf-2.1 gene) (receptor)
chain: STEEATALLKWKATFKNQNNSFLASWIPSSNACKDWYGVVCFNGRVNTLNITNASVIGTLYAFPFSSLPSLENLDLSKNNIYGTIPPEIGNLTNLVYLDLNNNQISGTIPPQIGLLAKLQIIRIFHNQLNGFIPKEIGYLRSLTKLSLGINFLSGSIPASVGNLNNLSFLYLYNNQLSGSIPEEISYLRSLTELDLSDNALNGSIPASLGNMNNLSFLFLYGNQLSGSIPEEICYLRSLTYLDLSENALNGSIPASLGNLNNLSFLFLYGNQLSGSIPEEIGYLRSLNVLGLSENALNGSIPASLGNLKNLSRLNLVNNQLSGSIPASLGNLNNLSMLYLYNNQLSGSIPASLGNLNNLSMLYLYNNQLSGSIPASLGNLNNLSRLYLYNNQLSGSIPEEIGYLSSLTYLDLSNNSINGFIPASFGNMSNLAFLFLYENQLASSVPEEIGYLRSLNVLDLSENALNGSIPASFGNLNNLSRLNLVNNQLSGSIPEEIGYLRSLNVLDLSENALNGSIPASFGNLNNLSRLNLVNNQLSGSIPEEIGYLRSLNDLGLSENALNGSIPASLGNLNNLSMLYLYNNQLSGSIPEEIGYLSSLTYLSLGNNSLNGLIPASFANMRNLQALILNDNNLIGEIPSSVCNLTSLEVLYMPRNNLKGKVPQCLGNISNLQVLSMSSNSFSGELPSSISNLTSLQILDFGRNNLEGAIPQCFGNISSLEVFDMQNNKLSGTLPTNFSIGCSLISLNLHGNELEDEIPRSLDNCKKLQVLDLGDNQLNDTFPMWLGTLPELRVLRLTSNKLHGPIRSSRAEIMFPDLRIIDLSRNAFSQDLPTSLFEHLKGMRTVDKTMEEPSYESYYDDSVVVVTKGLELEIVRILSLYTVIDLSSNKFEGHIPSVLGDLIAIRILNVSHNALQGYIPSSLGSLSILESLDLSFNQLSGEIPQQLASLTFLEFLNLSHNYLQGCIPQGPQFRTFESNSYEGNDGLRGYPVSKGCGKDPVSEKNYTVSALEDQESNSEFFNDFWKAALMGYGSGLCIGISMIYILISTGNLRWLARIIEKLEHKIIMQRRKKQRGQRNYRRRNNHF
With B1, the resistance of progeny of resistant transformants to matched races of C. fulvum carrying or lacking Avr-2 (race 5,9 compared with race 2,5,9) came to 75%.

B2: Cf-2.2 protein (polypeptide encoded by the tomato Cf-2.2 gene) (receptor)
chain: STEEATALLKWKATFKNQNNSFLASWIPSSNACKDWYGVVCFNGRVNTLNITNASVIGTLYAFPFSSLPSLENLDLSKNNIYGTIPPEIGNLTNLVYLDLNNNQISGTIPPQIGLLAKLQIIRIFHNQLNGFIPKEIGYLRSLTKLSLGINFLSGSIPASVGNLNNLSFLYLYNNQLSGSIPEEISYLRSLTELDLSDNALNGSIPASLGNMNNLSFLFLYGNQLSGSIPEEICYLRSLTYLDLSENALNGSIPASLGNLNNLSFLFLYGNQLSGSIPEEIGYLRSLNVLGLSENALNGSIPASLGNLKNLSRLNLVNNQLSGSIPASLGNLNNLSMLYLYNNQLSGSIPASLGNLNNLSMLYLYNNQLSGSIPASLGNLNNLSRLYLYNNQLSGSIPEEIGYLSSLTYLDLSNNSINGFIPASFGNMSNLAFLFLYENQLASSVPEEIGYLRSLNVLDLSENALNGSIPASFGNLNNLSRLNLVNNQLSGSIPEEIGYLRSLNVLDLSENALNGSIPASFGNLNNLSRLNLVNNQLSGSIPEEIGYLRSLNDLGLSENALNGSIPASLGNLNNLSMLYLYNNQLSGSIPEEIGYLSSLTYLSLGNNSLNGLIPASFGNMRNLQALILNDNNLIGEIPSSVCNLTSLEVLYMPRNNLKGKVPQCLGNISNLQVLSMSSNSFSGELPSSISNLTSLQILDFGRNNLEGAIPQCFGNISSLEVFDMQNNKLSGTLPTNFSIGCSLISLNLHGNELEDEIPRSLDNCKKLQVLDLGDNQLNDTFPMWLGTLPELRVLRLTSNKLHGPIRSSRAEIMFPDLRIIDLSRNAFSQDLPTSLFEHLKGMRTVDKTMEEPSYESYYDDSVVVVTKGLELEIVRILSLYTVIDLSSNKFEGHIPSVLGDLIAIRILNVSHNALQGYIPSSLGSLSILESLDLSFNQLSGEIPQQLASLTFLEFLNLSHNYLQGCIPQGPQFRTFESNSYEGNDGLRGYPVSKGCGKDPVSEKNYTVSALEDQESNSEFFNDFWKAALMGYGSGLCIGISIIYILISTGNLRWLARIIEELEHKIIMQRRKKQRGQRNYRRRNNRF
Molecule B2 had a resistance of progeny of resistant transformants to matched races of C. fulvum carrying or lacking Avr-2 (race 5,9 compared with race 2,5,9) of 75%.

The values are drawn from patent publication US6287865.
